Experimental data as given in patent US20120034672A1, “[…] LUCIFERASE VARIANT WITH PROLONGED BIOLUMINESCENCE” (priority 2009, published 2012).
“Also recorded” adds a separate entry of the source.

Legend:
[1] = Temporal changes in bioluminescence intensity after substrate introduction (stability)
Procedure: First, a gene encoding each GLuc variant was cloned into pcDNA 3.1(+), and the same amount of plasmid was introduced into COS-7 cells. The cells were collected 16 hours after the introduction, lysed in cell lysate, and then transferred to a microplate reader. PBS buffer in which coelenterazine is dissolved was set to a substrate injector of the plate reader. At the measurement, after the substrate was automatically injected into each well, changes in the luminescence intensities were measured every 0.05 seconds.
Note that the composition of the modified Matthew's buffer contains the following components: • 100 mM potassium phosphate, 500 mM sodium chloride, 1 mM ethylenediaminetetraacetic acid (EDTA), 0.15 mg/ml porcine gelatin, pH 5.0, 1% Nonyiphenol ethoxylates (Tergitol NP-9) and 1% Antifoam, 25 mM thiourea, and 0.1% DMSO.

[2] = Area of luminescence spectrum of GLuc variants (20-minute lysis, luminescence plate reader); type: biochemical; settings: for bioluminescence intensity higher than GLuc (area ratio): plate reader; for bioluminescence intensity (area of spectrum), in words: versus original GLuc
Procedure: In this case, a protocol for immersing the lysate samples in lysis solution for 20 minutes was employed (uniformed cell lysates even whose organelles are lysed). The area of the luminescence spectrum measured by a luminescence plate reader was used as the index of the luminescence intensity.

[3] = Luminescence spectrum of GLuc variants in COS-7 cell lysates (5-minute lysis, spectrophotometer); type: biochemical; settings: for luminance (peak of luminescence spectrum), in words: versus original GLuc
Procedure: Subsequently, cell lysates were prepared from the COS-7 cells in each well (5-minute lysis), and a spectrum was measured in the presence of a luciferase-specific substrate (coelenterazine), using a fluorescence spectrophotometer (F-7000, Hitachi), thereby examining the effect of the introduced mutation. FIGS. 4B-1 and 4C show the results.
Additionally, in the preparation of cell samples, the samples are immersed in a lysis solution for 5 minutes. This allows preparation of non-uniform samples of cells whose organelles are not lysed, by a quick process.

Molecule | bioluminescence intensity higher than GLuc (area ratio) [2] | bioluminescence intensity (area of spectrum), in words [2] | luminance (peak of luminescence spectrum), in words [3] | other results
Y97W: GLuc variant in which tyrosine (Y) at position 97 was mutated to tryptophan (W) (protein, GLuc mutant (Y97W)) MGVKVLFALICIAVAEAKPTENNEDFNIVAVASNFATTDLDADRGKLPGKKLPLEVLKEMEANARKAGCTRGCLICLSHIKCTPKMKKFIPGRCHTWEGDKESAQGGIGEAIVDIPEIPGFKDLEPMEQFIAQVDLCVDCTTGCLKGLANVQCSDLLKKWLPQRCATFASKIQGQVDKIKGAGGDKDEL | 2.1 times | particularly high bioluminescence intensity |  | bioluminescence stability, short time ([1]; 5 seconds, substrate in PBS buffer): stable luminescence intensities; also recorded: relatively stable bioluminescences
I90L/I115L: GLuc with isoleucine at positions 90 and 115 replaced with leucine (protein, GLuc mutant (I90L/I115L)) MGVKVLFALICIAVAEAKPTENNEDFNIVAVASNFATTDLDADRGKLPGKKLPLEVLKEMEANARKAGCTRGCLICLSHIKCTPKMKKFLPGRCHTYEGDKESAQGGIGEAIVDLPEIPGFKDLEPMEQFIAQVDLCVDCTTGCLKGLANVQCSDLLKKWLPQRCATFASKIQGQVDKIKGAGGDKDEL | 4.9 times | particularly high bioluminescence intensity |  | bioluminescence stability and strength ([1]; substrate in modified Matthew's buffer): very stable and strong bioluminescence
I118V: GLuc variant, position 118 replaced with valine (protein, GLuc mutant (I118V)) MGVKVLFALICIAVAEAKPTENNEDFNIVAVASNFATTDLDADRGKLPGKKLPLEVLKEMEANARKAGCTRGCLICLSHIKCTPKMKKFIPGRCHTYEGNKESAQGGIGEAIVDIPEVPGFKDLEPMEQFIAQVDLCVDCTTGCLKGLANVQCSDLLKKWLPQRCATFASKIQGQVDKIKGAGGDKDEL |  |  | particularly high luminance | 
I108V: GLuc variant, position 108 replaced with valine (protein, GLuc mutant (I108V)) MGVKVLFALICIAVAEAKPTENNEDFNIVAVASNFATTDLDADRGKLPGKKLPLEVLKEMEANARKAGCTRGCLICLSHIKCTPKMKKFIPGRCHTYEGNKESAQGGVGEAIVDIPEIPGFKDLEPMEQFIAQVDLCVDCTTGCLKGLANVQCSDLLKKWLPQRCATFASKIQGQVDKIKGAGGDKDEL |  |  | particularly high luminance | luminescence intensity higher than GLuc (peak of luminescence spectrum) ([3]; COS-7 lysate, coelenterazine): 6.7 times
H95E: GLuc variant, histidine at position 95 replaced with glutamic acid (protein, GLuc mutant (H95E)) MGVKVLFALICIAVAEAKPTENNEDFNIVAVASNFATTDLDADRGKLPGKKLPLEVLKEMEANARKAGCTRGCLICLSHIKCTPKMKKFIPGRCETYEGDKESAQGGIGEAIVDIPEIPGFKDLEPMEQFIAQVDLCVDCTTGCLKGLANVQCSDLLKKWLPQRCATFASKIQGQVDKIKGAGGDKDEL | 3.0 times | particularly high bioluminescence intensity |  | 
I90V: GLuc variant, isoleucine at position 90 mutated to valine (protein, GLuc mutant (I90V)) MGVKVLFALICIAVAEAKPTENNEDFNIVAVASNFATTDLDADRGKLPGKKLPLEVLKEMEANARKAGCTRGCLICLSHIKCTPKMKKFVPGRCHTYEGNKESAQGGIGEAIVDIPEIPGFKDLEPMEQFIAQVDLCVDCTTGCLKGLANVQCSDLLKKWLPQRCATFASKIQGQVDKIKGAGGDKDEL |  |  | particularly high luminance | bioluminescence stability, long time ([1]; 10 minutes, substrate in PBS buffer): relatively stable
